Key:
IL-1B = test: Circulating IL-1B levels in mice fed a high-fat diet; format: in vivo, mice (C57BL/6JN); conditions: 12 weeks; versus DAG; including SEQ ID NO: 2 at low doses
Method: (§1) For all the in vivo testing, male mice of the C57BL/6JN strain between 8 to 10 weeks of age were used, housed in groups of 3 to 5 mice per cage with food and water ad libitum in ventilated racks, and whose microbiota were unified for 4 weeks.
(§2) The mice received either 200 μL of a phosphate buffer solution (PBS) at pH 7.5 (as a vehicle), or 200 μL of the PBS solution, with each of the intragastric treatments daily for 12 weeks. They were fed either a Normal Diet (DN, Harlan, Teklad 2018SX) with 18% of the calories coming from fat, or a High-Fat Diet (DAG, Research Diets, D12491), with 60% of the calories coming from fat. […]
To determine the effect of the peptides SEQ ID NO: 2 and SEQ ID NO: 3 in attenuating the inflammatory process in adipose tissue, the cellular infiltrate of the adipose tissue of the mice was quantified after they had been fed DAG.

IL-6 = IL-6 levels in mice fed a high-fat diet; format: in vivo, mice (C57BL/6JN); conditions: 12 weeks; animals fed DAG
Method: as §1
The mice received either 200 μL of a phosphate buffer solution (PBS) at pH 7.5 (as a vehicle), or 200 μL of the PBS solution, with each of the intragastric treatments daily for 12 weeks. They were fed either a Normal Diet (DN, Harlan, Teklad 2018SX) with 18% of the calories coming from fat, or a High-Fat Diet (DAG, Research Diets, D12491), with 60% of the calories coming from fat.
All the mice were randomly divided into five experimental groups in order to study the effect of SEQ ID NO: 3 and SEQ ID NO: 2 correctly: • Group 1—Mice with DN that received 200 μl of PBS intragastrically. • Group 2—Mice with DAG that received 200 μl of PBS intragastrically. • Group 3—Mice with DAG that received 200 μl of PBS with SEQ ID NO: 3 intragastrically at a dose of: 2.5 μg/mouse. • Group 4—Mice with DAG that received 200 μl of PBS with SEQ ID NO: 2 intragastrically at a dose of 0.6 μg/mouse (high dose). • Group 5—Mice with DAG that received 200 μl of PBS with SEQ ID NO: 2 intragastrically at a dose of 0.2 μg/mouse (low dose).

mice fed a high-fat diet = test: Insulin resistance test (PRI) in mice fed a high-fat diet; format: in vivo, mice (C57BL/6JN); conditions: 12 weeks; intragastric daily; SEQ ID NO: 3 2.5 μg/mouse, SEQ ID NO: 2 0.6 or 0.2 μg/mouse
Method: as §1, §2
The mice were subjected to fasting for 6 hours and the baseline glucose values were determined, as described above. Subsequently, the mice received an intraperitoneal injection of 1 mU of insulin per gram of body weight, and blood glucose values were recorded at 15, 30, 60, and 120 minutes after administration. The area under the curve (AUC) of the insulin resistance test was calculated considering the glucose decrease between time T0 and T15 using the absolute glucose values, as shown in FIGS. 20A and 20B.

[1] = Aggregation during ultrafiltration / buffer change; format: physicochemical
Description: The protein of SEQ ID NO. 1, expressed in recombinant form in this invention, contains a tag of six residues of histidine at the carboxyl terminal end, allowing it to be purified by immobilized metal cation affinity chromatography (IMAC). Purification was initially evaluated with the soluble fractions of the two strains that were used for recombinant production, obtained by enzymatic lysis and sonication. The first approach with the Ni-NTA Agarose resin allowed for the recovery of 6% of the SEQ ID NO. 1 with a purity of 50-80%. An FPLC Ákta Prime chromatographic system and an XK16/20 column packed with 13 mL of Chelating Sepharose Fast Flow-Ni^+2 resin were used for purification. A minimum imidazole concentration of 30 mM was defined in both the sample to be injected and the equilibrium buffer. Elution was performed with 500 mM imidazole at 6.5 mL/min, resulting in a minimum recovery of 80% of SEQ ID No. 1 with 82% purity. The ultrafiltration of the tangential flow of SEQ ID NO. 1 during the chromatography stage, in order to concentrate and change the buffer, negatively impacted protein quality. However, the dialysis of EQ ID NO.
However, the aggregation of SEQ ID NO. […] This was corroborated by the SDSPAGE analysis, in which the remaining protein in the soluble fraction presented fragments of lower molecular weight than that of SEQ ID NO. 1, but greater than 25 kDa. On the other hand, the precipitate turned out to be denatured SEQ ID NO. 1, but not degraded.
Finally, SEQ ID NO. 4 and SEQ ID NO.

B1: peptide SEQ ID NO: 3 (carboxyl terminal domain of SEQ ID NO: 1) (peptide)
chain: QLPIETPANNPEESDEADQAPWTPMPLEIAFQGDRESVLKAMNAITGMQDYLFTVNSIRIRNERMMPPPIANPAAAKPAAAQPATGAASLTPADEAAAPAAPAIQQVIKPYMGKEQVFVQVSLNLVHFNQPKAQEPSED
circulating levels of IL-1B (IL-1B): prevented the increase in the circulating levels of IL-1B | IL-6 levels (IL-6): dramatic decrease in IL-6 levels | insulin sensitivity (AUC of insulin resistance test) versus DAG group (mice fed a high-fat diet): improve insulin sensitivity | aggregation in ultrafiltration operations [1]: no visible aggregation

— patent publication US20240400621A1, “PEPTIDES FOR METABOLIC SYNDROME” (ALPARIS, S.A. de C.V., priority 2021, published 2024)
